We go through 167 variants from the RNAGym collection of RNA variant scans (doi:10.7554/elife.90254).

The chains are these.
B1: LINE1-full (parent)
chain: UACGUAGGUGGUUUUCCCCUGAUAGUGCUAAGGGGGCCUGGAAGUUUGGACUGGGCAGAGCUCAACACAGCGUGGCAAAGUGGCUGUGGCUAGACUGCCUCUCUGGAUUCCUCGUCACUCAGCAGGGCAUCUCUGAGAGAAAUGCC

Variants of B1 are the subject of this data set. Description: self-cleavage, relative activity (ratio to wild type); higher = more cleavage; in vitro, sequencing; the parent is a self-cleaving ribozyme.
Regarding U14C A136G, the self-cleavage is 1.45.
To U14C A136U belongs 1.42; to U14C C56U, 0.18.
With U15A U108C the figure was 1.49; with U14A U143A, 0.99.
With U14C A42U the figure was 1.02; with U14C G21A, 1.39.
For the variant U15A U109A, the self-cleavage amounted to 0.47.
As to U15A U109C, the self-cleavage turned out to be 0.86.
To U15C C131U belongs 2.51.
With U15C C131A the figure was 1.74; with U14C A50G, 1.08; with U15A U45C, 0.66.
With U14C G114A the figure was 1.06; with U15C A117C, 2.07.
Consider U15C A117G, for which the self-cleavage worked out at 1.83.
To U14C U85A belongs 0.08; to U14C U85C, 0.23; to U14C U130C, 1.5.
To U14C U130A belongs 1.47; to U15A C110A, 1.16.
As to U14C G40A, the self-cleavage is 0.85.
To U14C G40U belongs 1.06; to U15C A141G, 1.51.
With U14G U26A the figure was 1.18; with U14C A64G, 0.33.
With U14A U23A, the self-cleavage is 0.72.
To U15C C84G belongs 0.21; to U15A A138U, 1.07.
To U15A A138G belongs 1.45; to U14A U100C, 0.78; to U14A U100A, 0.28.
With U14G A78G the figure was 1.23.
In the case of U14C C98U, the self-cleavage amounted to 0.07.
With U14C C95U the figure was 0.21; with U14C U47A, 1.17; with U14C U52G, 1.51.
With U14C U52C the figure was 1.21.
With U15C C51U the figure was 1.26; with U14C U62C, 0.09.
U14C U62A: the self-cleavage was found to be 0.1.
To U15C A31G belongs 0.75; to U15C A31U, 0.95.
With U15C C123U the figure was 1.72; with U14C C66U, 0.03; with U15C G27A, 1.1.
On to U14A U112C, for which the self-cleavage is 0.79.
In the case of U14A U112A, the self-cleavage was found to be 1.33.
To U15C C16U belongs 1.02.
Take U14A U62C: the self-cleavage turned out to be 0.1.
For U14A U62G, the self-cleavage was 0.53.
To U15C G86A belongs 0.06.
To U14C U96C belongs 0.18; to U14A U115A, 0.7.
To U14A U115C belongs 1.06; to U14A C131U, 0.21.
For U14C G60A, the self-cleavage stood at 0.11.
To U14C A78U belongs 1.44; to U15A G55C, 0.15; to U15A G86A, 0.07.
To U15A A57U belongs 0.14; to U15A U81C, 1.14.
To U15A U81A belongs 1.56; to U15A U85G, 0.28.
As to U15A U85A, the self-cleavage came out at 0.11.
With U15C G41U the figure was 0.57; with U14C A141G, 1.03; with U15C G135U, 1.21.
With U14C G144A the figure was 1.13.
To U14C G35U belongs 1.02.
For the variant U14C G35C, the self-cleavage came out at 1.46.
Take U14C G35A: the self-cleavage came to 1.22.
With U15C U20A, the self-cleavage was found to be 1.12.
To U15C U20G belongs 0.52; to U15C U20C, 1.33.
With U15C A140G, the self-cleavage was determined as 1.59.
As to U15C A140C, the self-cleavage stood at 1.12.
With U15C A64U the figure was 0.66; with U15C G49U, 0.94.
With U14C U26G the figure was 1.61; with U14C U26C, 1.12; with U15A G125U, 0.89.
As to U14A G34A, the self-cleavage is 0.78.
With U14A G34C the figure was 1.98; with U14A U85C, 0.13; with U14C U81C, 1.43.
To U15A G49A belongs 0.74.
With U14A G55U the figure was 0.28; with U14C C37U, 0.95; with U14C C37G, 0.56.
Turning to U15A A22C, the self-cleavage came to 0.85.
With U15A A22U the figure was 1.16.
Regarding U15A A22G, the self-cleavage was determined as 0.79.
To U14C A94U belongs 0.29.
On to U15A U87A, for which the self-cleavage worked out at 0.08.
With U15A U87C, the self-cleavage is 0.28.
On to U15A G127U, for which the self-cleavage came out at 1.87.
To U15A G35C belongs 1.26.
With U15C A24U the figure was 1.08; with U15C A24G, 1.13; with U15C A24C, 1.84.
To U14C U119C belongs 1.29; to U15A C38A, 0.77; to U14G A50U, 1.14.
As to U15C A129U, the self-cleavage is 1.06.
Consider U14C U108A, for which the self-cleavage stood at 0.98.
To U14A G137A belongs 0.77.
As for U15C U46G, the self-cleavage was 1.15.
With U15C U46A the figure was 1.41; with U15A A136G, 1.26; with U15A A140G, 1.11.
With U15A A140U the figure was 0.61; with U15A A79U, 1.09; with U14C C90A, 0.
Regarding U15A C118U, the self-cleavage was found to be 0.49.
With U14A U108C the figure was 0.87; with U14A U108G, 1.09; with U14A U15C, 1.02.
With U15A A64U the figure was 0.29.
To U15A A64G belongs 0.08; to U14G U87C, 0.41.
As to U14A C111A, the self-cleavage stood at 0.72.
In the case of U14C G27A, the self-cleavage stood at 1.15.
With U15A C19U the figure was 0.93; with U15A C19A, 0.79; with U15A U130G, 1.09.
To U14C U115A belongs 1.45.
With U14C U20A the figure was 0.89; with U14C U20G, 0.9; with U14C U39A, 1.12.
U14C U39C: the self-cleavage is 1.
To U15A U96A belongs 0.09; to U15A U96C, 0.41.
With U14C C76A the figure was 1.31; with U14C G125A, 1.46; with U15C A69G, 0.47.
To U15C U47A belongs 1.42; to U15C U47C, 1.64.
As for U15A C84U, the self-cleavage turned out to be 0.08.
Take U15C A65G: the self-cleavage was found to be 0.1.
To U15C A65C belongs 0.09; to U15C U62G, 0.15; to U14C A24G, 0.81.
With U14C A24U the figure was 1.07; with U15A U23A, 0.76; with U15A U23C, 1.17.
On to U14A U47A, for which the self-cleavage was 0.81.
With U15C A94G, the self-cleavage worked out at 0.34.
With U14G A141G the figure was 0.89.
To U15A U73C belongs 1.06.
To U15C G80A belongs 1.82; to U15A C95U, 0.41; to U14C G70A, 0.26.
In the case of U15C G88A, the self-cleavage was determined as 0.06.
To U15C C19U belongs 1.08; to U14C A30U, 1.11.
With U14C A30G the figure was 1.08.
To U15C G54A belongs 0.74.
For the variant U14C C116U, the self-cleavage is 1.14.
With U14C G72A the figure was 1.23; with U15A G44A, 1.32; with U14A U26C, 1.95.
For U14C G32A, the self-cleavage came to 0.99.
Consider U14A U52A, for which the self-cleavage was 1.09.
To U14C U112G belongs 1.75; to U14C A43U, 1.15; to U14C A43G, 1.14.
